From the supplement of paper PMC9732359
± gives the uncertainty stated by the source.

Assay: protein stability index of a GFP-peptide fusion (yeast GPS) (PSI 1-4); higher = more stable; sorted into four equal gates, so the index is relative within each strain
Settings: ubr1∆
In short: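 Sequencing reads from sorted gates were used to score each peptide. The library consisted of tiled 17-residue yeast protein peptides fused downstream of GFP on a Cherry-expressing plasmid, pooled and carried in yeast. Mid-log cultures in leucine-free medium were split into four equal gates by GFP/Cherry ratio, and each gate's plasmids were PCR-amplified and Illumina-sequenced. The protein stability index adds up, over all gates, the read frequency multiplied by the gate number.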

Sequence | protein stability index
LVDDENEPSQSLISTRN [BRN1] | 3.15 ± 0.057
LVELMFIRSTNSWFDVT [FAS1] | 1.51 ± 0.044
LVETCLNDLVESSFIEI [BRR2] | 2.46 ± 0.054
LVFILAVVGNNMLLDPA [RRP42] | 1.81 ± 0.063
LVLDLLTWLSSFSVCKI [IRR1] | 1.71 ± 0.039
LVLGEVSKKELYAIKKV [BRR2] | 1.83 ± 0.08
LVQLFLWDSKELEQLVE [RPN3] | 2.85 ± 0.083
LVSDSEIIDLNLHSFTK [POP6] | 2.71 ± 0.048
LVSVVEAFIASGITDPY [FAS2] | 1.85 ± 0.035
LVTCEGSEEKAFVPKKR [SRP54] | 1.61 ± 0.066
LVVIRFGRKNDRQCMIM [DIB1] | 2.79 ± 0.038
LWELALAFIPNILALNL [YML031W/NDC1] | 1.34 ± 0.061
LYKLNDKIAVAVAGLTA [PRE9] | 2.31 ± 0.043
LYQIDYLGTKVELPYGA [PRE1] | 2.23 ± 0.073
LYRLSTPLRDEVTDKNY [PRP8] | 3.11 ± 0.059
LYSVKFAPAHLGLKLAC [YGL100W/SEH1] | 2.79 ± 0.046
MAGKVLILTSHNMKAYY [BRR2] | 2.4 ± 0.068
MAKQLIRLANESSELNK [CSN12] | 2.63 ± 0.073
MAKRTKKVGITGKYGVR [RPL43A] | 3.55 ± 0.082
MAMNITPRLYTDRSRDF [RPB2] | 3.2 ± 0.087
MAQRVTFRRRNPYNTRS [RPL34A] | 1.77 ± 0.043
MARGPKKHLKRLAAPHH [RPS4A] | 3.05 ± 0.054
MATNKIETLDPALIRPG [RPT2] | 3 ± 0.075
MAVGKNKRLSRGKKGLK [RPS1B] | 1.46 ± 0.12
MCHIVRKFHELNDHIDD [GRR1] | 1.72 ± 0.04

Sequence | protein stability index
MDAYSTRPLTLSHGSLE [FAS1] | 3.3 ± 0.087
MDEMDNVIRSLEQEYRL [RMP1] | 2.05 ± 0.072
MDFFNLNNNNNNNNTTT [SWI1] | 2.35 ± 0.067
MDFLNSMENTPKVPVSA [GAL11] | 2.37 ± 0.065
MDQDNNNHNDSNRLHPP [GRR1] | 2.9 ± 0.04
MDVDIGCYFEEKRYDDK [CSN12] | 3.33 ± 0.15
MEELGIVTPVEKAVEEK [RPT3] | 1.47 ± 0.17
MEQCKQRYQDLSQQQKD [YIL149C/MLP2] | 2.95 ± 0.048
MEWPKDMLKYKEDEPVV [ITC1] | 3.67 ± 0.17
MFANMKVLGVKDMSPIL [LRP1] | 1.46 ± 0.047
MFDAFVSFYFEDGTIES [SIN4] | 3.07 ± 0.062
MFFIKDLSLNITLHPSF [RPB7] | 2.24 ± 0.26
MGEAQTGANFDDVERGV [REC8] | 3.24 ± 0.081
MGKSHGYRSRTRYMFQR [RPL21A] | 3.32 ± 0.055
MGLGKTLQTISFLGYLR [ISW2] | 2.13 ± 0.056
MGNTKVHCRISCQIAQP [RRP45] | 1.91 ± 0.056
MHLMALHIHGSSNPLGI [COB] | 2.32 ± 0.046
MKLDDSSKTRNVLNRIQ [ITC1] | 1.38 ± 0.056
MKRADKFKDMGIRAPKG [RPT5] | 3.3 ± 0.12
MKSLLTELSNKETTIEK [YIL149C/MLP2] | 3.25 ± 0.062
MKTQRFVSNMGFDIQKS [SIR4] | 2.01 ± 0.04
MKYTQYPNSSKLKRNSD [LIN1] | 3.14 ± 0.094
MKYVRETSGVTTALLKD [MED8] | 2.21 ± 0.24
MLGHYLGEFSITYTPVR [RPS15] | 2.86 ± 0.18
MLPPKSVKFTHIAHTLP [SSN2] | 1.82 ± 0.034

Sequence | protein stability index
MNAILTDVKLTLPQPRL [SMD1] | 3.11 ± 0.076
MNLQNNVLNQIHQILLP [CSE2] | 3.21 ± 0.12
MNNGSGRYLLTPPDDLH [SRB8] | 2.63 ± 0.054
MNVTPLDELQWKSPEWI [MED6] | 3.37 ± 0.21
MPGMPNMPGMPKVTPQM [SRP54] | 3.34 ± 0.1
MPGSQINSPMPQQAQMQ [SNF2] | 2.95 ± 0.097
MQIFVKTLTGKTITLEV [RPS31] | 3.13 ± 0.13
MRLIKRVRAESLHSNSF [YJL039C/NUP192] | 2.44 ± 0.12
MRRFILGTTEGDIKVLD [RPN14] | 1.25 ± 0.18
MRRNSKILNIIKCSQSS [POP5] | 2.21 ± 0.046
MRSKLEKLTLVTLSEIY [CSN9] | 1.79 ± 0.051
MSACVGQQSVEGKRIAF [RPO21] | 2.63 ± 0.24
MSDFVPIDAGLNEAPFP [MCD1] | 2.97 ± 0.047
MSDSPLSKRQKRKSAQE [SMC4] | 3.46 ± 0.27
MSEEQDPLLAGLGETSG [RPT4] | 3.25 ± 0.15
MSLEPTQTVSGTPPMLH [DSN1] | 3 ± 0.1
MSLTTAAPLLALLRENQ [RPN2] | 3.05 ± 0.08
MSTKAQNPMRDLKIEKL [RPL11B] | 3.6 ± 0.23
MTIDLEPIEESSQNNSE [IRR1] | 3.09 ± 0.059
MTQRAIQSAESIKSQKE [SWI3] | 1.7 ± 0.13
MTRSSVLADALNAINNA [RPS22A] | 2.99 ± 0.045
MTSENPDVLLSRVINVV [RRP6] | 2.27 ± 0.14
MVGLVDPDKLKPNDLVG [RPT5] | 2.75 ± 0.069
MVKGLLKSFTESTAGSA [ECM29] | 3.34 ± 0.096
MVQQLSLFGSIGDDGYD [SRB5] | 3.47 ± 0.085

Sequence | protein stability index
MVSHKTARGKAALERLK [RPL16B] | 2.21 ± 0.16
MYILGMCVSKGNASLKY [YCG1] | 2.17 ± 0.091
NAELLDYLFHLLISLNI [YLR018C/POM34] | 1.28 ± 0.027
NAKDKERLQLLEDVVGA [SMC3] | 3.21 ± 0.11
NAKESNYTDLIWFPEDF [MED1] | 2.28 ± 0.052
NALTVGDFDKFDSLIKV [RPN9] | 1.3 ± 0.11
NAVTAAAANNNIKPVEQ [GAL11] | 2.84 ± 0.039
NCPHSDSTQLLETILEE [SSN2] | 2.94 ± 0.063
NDFANNLPKEGDIVLTR [CSL4] | 2.97 ± 0.19
NDLRDMILNYNPSQGVS [UBP6] | 3.18 ± 0.064
NDNNLKKLESQESLVKL [RPN5] | 2.97 ± 0.071
NDRKQTTVSNDLENSPL [SSN2] | 3.08 ± 0.038
NDSKEESTTEATGNESQ [YLR335W/NUP2] | 3.35 ± 0.1
NEAEQVYLSLLDKDSSQ [RPN6] | 3.45 ± 0.22
NEEATPIPSSETKADGI [RRP6] | 3.01 ± 0.04
NEGLVEYIDAEEEESIL [RPB2] | 3.37 ± 0.087
NEIANSIIQSKQDCVDW [BRR2] | 2.88 ± 0.079
NENENFGYDIPLLDIVL [YML103C/NUP188] | 2.56 ± 0.056
NENETRDKVCKQINEAR [PGD1] | 3.09 ± 0.1
NENSNCLLSIPKSTKGK [YML103C/NUP188] | 2.35 ± 0.043
NESSSNTTVISDKQRRL [DIS3] | 3.05 ± 0.058
NFEAVFERLVPRGTAKL [SMC3] | 2.83 ± 0.042
NFEKILLTCYELEKKYH [SRB8] | 3.71 ± 0.21
NFIEPGINQILGNEKNQ [CDC53] | 2.75 ± 0.2
NFKGLAKEKERMLEEAI [YIL149C/MLP2] | 3.38 ± 0.083
